Reference: doi:10.1101/851345

How the values were obtained:
[1] = biological target: TerL^P74-26, large terminase of bacteriophage P74-26 (bacteriophage P74-26)
[2] = biological target: TerS^P74-26, small terminase of the thermophilic bacteriophage P74-26 (gp83) (bacteriophage P74-26); assay: SEC-MALS

Substance: TerS^P74-26, small terminase of the thermophilic bacteriophage P74-26 (gp83) (natural protein)
- ATPase activity of TerL^P74-26 upon mixing with gp83, no DNA present [1]: 4.4 fold
- stoichiometry N [2]: 9
